The values below come from patent publication US5985836A, “Alpha-1 proteinase inhibitor binding peptides” (Bayer Corporation, priority 1998, dated 1999).

Experiment [1] has as its target T1, A1PI (Homo sapiens, UniProt P01009).
T1 construct: Human plasma is currently the only approved source of therapeutic AlPI
Description: A1PI binding on peptide-resin column, injection of 1 mg A1PI in equilibration buffer. Conditions: for Percent AlPI Eluted by Fraction, 1M NaCl / Percent AlPI Eluted by Fraction, 2% Acetic Acid / Percent AlPI Eluted by Fraction, Flowthrough: sequence order, 1 mg AlPI; for Percent A1PI Eluted by Fraction Based on Absorbance at 280 nm, 1M NaCl / Percent A1PI Eluted by Fraction Based on Absorbance at 280 nm, 2% Acetic Acid / Percent A1PI Eluted by Fraction Based on Absorbance at 280 nm, Flowthrough / Percent A1PI Eluted by Fraction, 1M NaCl / Percent A1PI Eluted by Fraction, 2% Acetic Acid / Percent A1PI Eluted by Fraction, Flowthrough: 1 mg A1PI in equilibration buffer; for % of Total A1PI Eluted by Fraction (Based on Absorbance at 280 nm), 1M NaCl / % of Total A1PI Eluted by Fraction (Based on Absorbance at 280 nm), 2% Acetic Acid / % of Total A1PI Eluted by Fraction (Based on Absorbance at 280 nm), Flowthrough: 1 mg A1PI. As for the experimental part: (§1) Confirmatory binding assays were performed in a column chromatographic format on a microbore HPLC using individual peptide sequences synthesized directly onto the Toyopearl 650 M Chelate resin which had been modified with Totda followed by an alanine residue (A-Totda-Toyopearl), at a final substitution density of 0.1 mmole/g resin. The resin was packed into 0.4×5 cm columns (Thomson, Springfield, Va.) and tested on the Michrom HPLC system (Michrom BioResources, Auburn, Calif.). The elution program for all trials utilized the following method. The column was pre-equilibrated with equilibration buffer (as above). 1 ml of sample was injected and allowed sufficient time to flowthrough the column using equilibration buffer. The column was then washed with step elutions of 1M NaCl and 3M NaCl in equilibration buffer. The column was exposed to equilibration buffer with 0.1M NaCl. Any remaining protein was eluted with elution buffer (2% by volume glacial acetic acid in water).
(§2) A Gilson FC204 fraction collector at the HPLC outlet collected individual eluates for further analysis. Fractions collected from the 2% acetic acid eluates were neutralized with 2M Tris, pH 10.5 to bring the pH to neutrality. The protein samples were reconstituted in equilibration buffer unless otherwise stated. The samples were analyzed by the integration of the absorbance at 280 nm or by immunonephelometry. The specific method of determination is presented for each figure.
Tables 2 and 3 present the elution profiles for 19 sequences based on the injection of 1 mg AlPI in equilibration buffer at 4° C. and 20° C., respectively. The columns were run at a constant flow rate of865 μl/min (413 cm/hr) or 523 μl/min (250 cm/hr). No dependence of the elution profile with flow rate was found. The Percent AlPI Eluted by Fraction represents the amount eluted in the flowthrough, 1M NaCl wash, and 2% acetic acid fractions relative to the total AlPI eluted. The percentages are based on either the integration of the peak areas at […]

Experiment [2] deals with T1, A1PI. Description: A1PI purification from 5 mg hSA + 1 mg A1PI on peptide column, A1PI mass balance. Conditions: Table 19, A1PI, 5 mg hSA + 1 mg A1PI; for Mass Protein per Eluate Fraction, 1M NaCl / Mass Protein per Eluate Fraction, 2% Acetic Acid / Mass Protein per Eluate Fraction, Flow: * Below detection limit; for Percent Eluted by Fraction, 1M NaCl / Percent Eluted by Fraction, 2% Acetic Acid / Percent Eluted by Fraction, 3M NaCl / Percent Eluted by Fraction, Flow: relative to total loaded. The class given is binding. As for the experimental part: as §1, §2
Columns were assayed with a mixture of 5 mg human serum albumin (hSA)+1 mg AlPI at 4° C. (Table 4, Seq. ID 1-11, 15, 17) and 20° C. (Table 5, Seq. ID 1-10, 13, 15, 17). The chromatography method was modified to provide for a 10 minute residence time of sample in the column by decreasing the flow to 17 μl/min (10 cm/hr) upon injection. Following the incubation, the flow was set at 865 μl/min (413 cm/hr) for the step elutions of 1M NaCl, 3M NaCl, and 2% acetic acid. The mass balances presented are based upon immunonephelometry. The Percent Eluted value is protein-specific and based on the amount of the protein eluted in a […]

[3] abbreviates: VIWLVR N-terminal point mutations, 4° C.

Ends that are not written are not given here.

T1 sequence (P01009 25-418): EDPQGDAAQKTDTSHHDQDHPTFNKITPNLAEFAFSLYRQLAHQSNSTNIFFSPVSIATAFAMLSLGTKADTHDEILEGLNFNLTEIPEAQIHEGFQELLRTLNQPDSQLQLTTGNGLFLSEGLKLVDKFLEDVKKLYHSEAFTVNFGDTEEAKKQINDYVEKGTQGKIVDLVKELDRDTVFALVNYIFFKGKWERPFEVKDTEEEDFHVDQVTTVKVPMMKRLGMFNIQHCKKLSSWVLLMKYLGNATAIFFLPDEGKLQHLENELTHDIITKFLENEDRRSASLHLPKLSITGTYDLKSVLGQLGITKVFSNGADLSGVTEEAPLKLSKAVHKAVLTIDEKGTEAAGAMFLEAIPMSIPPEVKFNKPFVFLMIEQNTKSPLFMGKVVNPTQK

As for RVLFIV: reversed sequence of VIFLVR, the “binding of AlPI (in words)” value in the experiment with A1PI [1] is on record as “excellent binding”. In addition, in the experiment with A1PI [1] (4° C.), the “Percent AlPI Eluted by Fraction, 1M NaCl” value is listed as 27%; the “Percent AlPI Eluted by Fraction, 2% Acetic Acid” value turned out to be 65%; the “Percent AlPI Eluted by Fraction, Flowthrough” value stood at 8%. In addition, in the experiment with A1PI [1] (20° C.), the “Percent AlPI Eluted by Fraction, 1M NaCl” value is 3%; the “Percent AlPI Eluted by Fraction, 2% Acetic Acid” value amounted to 90%; the “Percent AlPI Eluted by Fraction, Flowthrough” value is reported as 7%. In addition, in the experiment with A1PI [2] (4° C.), the “Mass Protein per Eluate Fraction, 1M NaCl” value is given as 0.11 mg; the “Mass Protein per Eluate Fraction, 2% Acetic Acid” value is listed as 0.25 mg; the “Mass Protein per Eluate Fraction, Flow” value worked out at 0.48 mg; the “Percent Eluted by Fraction, 1M NaCl” value worked out at 13%. In addition, in the experiment with A1PI [2] (4° C.), the “Percent Eluted by Fraction, 2% Acetic Acid” value was determined as 30%; the “Percent Eluted by Fraction, 3M NaCl” value is listed as 0%; the “Percent Eluted by Fraction, Flow” value was 57%. Besides, in the experiment with A1PI [2] (20° C.), the “Mass Protein per Eluate Fraction, 1M NaCl” value is 0.04 mg; the “Mass Protein per Eluate Fraction, 2% Acetic Acid” value was determined as 0.54 mg; the “Mass Protein per Eluate Fraction, Flow” value was 0.22 mg; the “Percent Eluted by Fraction, 1M NaCl” value came out at 5%. For the same substance, in the experiment with A1PI [2] (20° C.), the “Percent Eluted by Fraction, 2% Acetic Acid” value was 68%; the “Percent Eluted by Fraction, 3M NaCl” value came out at 0%; the “Percent Eluted by Fraction, Flow” value came to 28%.

Turning to IIe Lys Arg Tyr Tyr Leu (IKRYYL), in the experiment with A1PI [1] (4° C.), the “Percent A1PI Eluted by Fraction Based on Absorbance at 280 nm, 1M NaCl” value (“Percent A1PI Eluted by Fraction Based … 1M NaCl” below) is reported as 97%; the “Percent A1PI Eluted by Fraction Based on Absorbance at 280 nm, 2% Acetic Acid” value was 3%; the “Percent A1PI Eluted by Fraction Based on Absorbance at 280 nm, Flowthrough” value stood at 0%. Besides, in the experiment with A1PI [1] (20° C.), the “Percent A1PI Eluted by Fraction, 1M NaCl” value came to 92%; the “Percent A1PI Eluted by Fraction, 2% Acetic Acid” value is 8%; the “Percent A1PI Eluted by Fraction, Flowthrough” value was found to be 0%.

For the substance NWKRVR, in the experiment with A1PI [1] (4° C.), the “Percent A1PI Eluted by Fraction Based … 1M NaCl” value came out at 95%; the “Percent A1PI Eluted by Fraction Based on Absorbance at 280 nm, 2% Acetic Acid” value is given as 5%; the “Percent A1PI Eluted by Fraction Based on Absorbance at 280 nm, Flowthrough” value amounted to 0%. In the experiment with A1PI [1] (20° C.), the “Percent A1PI Eluted by Fraction, 1M NaCl” value is 93%; the “Percent A1PI Eluted by Fraction, 2% Acetic Acid” value is 7%; the “Percent A1PI Eluted by Fraction, Flowthrough” value worked out at 0%.

“SSWLVR: point mutation of VIWLVR on Ala-Totda-Toyopearl (not fully specified (C-terminus))”: in the experiment with A1PI [1] (setting [3]), the “% of Total A1PI Eluted by Fraction (Based on Absorbance at 280 nm), 1M NaCl” value (“% of Total A1PI Eluted by Fraction … 1M NaCl” for short) worked out at 94%; the “% of Total A1PI Eluted by Fraction (Based on Absorbance at 280 nm), 2% Acetic Acid” value came out at 6%; the “% of Total A1PI Eluted by Fraction (Based on Absorbance at 280 nm), Flowthrough” value (shortened to “% of Total A1PI Eluted by Fraction … Flowthrough”) is given as 0%.

In the case of “DDWLVR: point mutation of VIWLVR on Ala-Totda-Toyopearl (not fully specified (C-terminus))”, in the experiment with A1PI [1] (setting [3]), the “% of Total A1PI Eluted by Fraction … 1M NaCl” value is 0%; the “% of Total A1PI Eluted by Fraction (Based on Absorbance at 280 nm), 2% Acetic Acid” value is reported as 1%; the “% of Total A1PI Eluted by Fraction … Flowthrough” value stood at 99%.

Turning to “Ac-V I F L V R: N-terminal acetylated sequence Ac-VIFLVR (listed under SEQ ID No:37) (not fully specified (C-terminus); printed as Ac-VIFLVR)”, in the experiment with A1PI [1] (VIFLVR point mutations, 4° C.), the “% of Total A1PI Eluted by Fraction … 1M NaCl” value is reported as 2%; the “% of Total A1PI Eluted by Fraction (Based on Absorbance at 280 nm), 2% Acetic Acid” value is listed as 22%; the “% of Total A1PI Eluted by Fraction … Flowthrough” value was found to be 76%. Further, in the experiment with A1PI [1] (VIFLVR point mutations, 20° C.), the “% of Total A1PI Eluted by Fraction … 1M NaCl” value stood at 0%; the “% of Total A1PI Eluted by Fraction (Based on Absorbance at 280 nm), 2% Acetic Acid” value turned out to be 0%; the “% of Total A1PI Eluted by Fraction … Flowthrough” value came to 100%.

Consider IKRYYN, for which, in the experiment with A1PI [1] (4° C.), the “Percent A1PI Eluted by Fraction Based … 1M NaCl” value is recorded as 100%; the “Percent A1PI Eluted by Fraction Based on Absorbance at 280 nm, 2% Acetic Acid” value is recorded as 0%; the “Percent A1PI Eluted by Fraction Based on Absorbance at 280 nm, Flowthrough” value was found to be 0%. In the experiment with A1PI [1] (20° C.), the “Percent A1PI Eluted by Fraction, 1M NaCl” value was 95%; the “Percent A1PI Eluted by Fraction, 2% Acetic Acid” value is 5%; the “Percent A1PI Eluted by Fraction, Flowthrough” value was found to be 0%.

Take “DSWLVR: point mutation of VIWLVR on Ala-Totda-Toyopearl (not fully specified (C-terminus))”: in the experiment with A1PI [1] (setting [3]), the “% of Total A1PI Eluted by Fraction … 1M NaCl” value was 10%; the “% of Total A1PI Eluted by Fraction (Based on Absorbance at 280 nm), 2% Acetic Acid” value is given as 0%; the “% of Total A1PI Eluted by Fraction … Flowthrough” value was found to be 90%.
